Biological target: anti-Fas monoclonal antibody HFE7A produced by mouse-mouse hybridoma HFE7A (FERM BP-5828)
Test: peptide competition: 200 μg peptide preincubated with 0.25 μg HFE7A, then flow cytometry on WR19L12a cells

inhibition of the binding of HFE7A to WR19L12a cells | Binder
50% | EINCTRTQNT [P100]
60% | KCRCKPNFFC [P110]
